Biological target: T1, IL-10 receptor (IL-10R1 and IL-10R2 receptor chains) on mouse cells (mouse, UniProt Q61727 17-575; Q61190 20-349)
T1 sequence (looked up) 1: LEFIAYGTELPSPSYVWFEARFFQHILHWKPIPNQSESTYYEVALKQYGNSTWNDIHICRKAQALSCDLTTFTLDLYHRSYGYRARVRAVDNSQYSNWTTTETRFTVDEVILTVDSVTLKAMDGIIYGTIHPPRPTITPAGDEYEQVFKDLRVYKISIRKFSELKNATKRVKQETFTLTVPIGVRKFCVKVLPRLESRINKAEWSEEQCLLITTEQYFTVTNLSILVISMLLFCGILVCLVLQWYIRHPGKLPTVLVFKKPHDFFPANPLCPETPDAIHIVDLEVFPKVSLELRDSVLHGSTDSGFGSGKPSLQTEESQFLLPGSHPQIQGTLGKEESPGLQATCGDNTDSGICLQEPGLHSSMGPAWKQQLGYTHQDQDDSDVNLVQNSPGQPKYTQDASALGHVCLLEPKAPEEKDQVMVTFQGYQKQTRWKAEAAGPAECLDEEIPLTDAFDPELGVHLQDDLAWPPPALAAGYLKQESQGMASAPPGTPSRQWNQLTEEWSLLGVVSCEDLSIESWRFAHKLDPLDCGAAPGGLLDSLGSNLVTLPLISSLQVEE
T1 sequence (looked up) 2: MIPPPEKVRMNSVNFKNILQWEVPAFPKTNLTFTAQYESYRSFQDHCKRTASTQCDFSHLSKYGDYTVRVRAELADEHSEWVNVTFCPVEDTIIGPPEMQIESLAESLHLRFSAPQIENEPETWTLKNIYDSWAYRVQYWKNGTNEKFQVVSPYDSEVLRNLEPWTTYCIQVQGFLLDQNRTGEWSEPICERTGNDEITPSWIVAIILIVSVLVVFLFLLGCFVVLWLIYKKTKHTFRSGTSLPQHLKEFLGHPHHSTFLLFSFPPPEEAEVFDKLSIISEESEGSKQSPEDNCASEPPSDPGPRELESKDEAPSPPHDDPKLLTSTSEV
Test: cell-based or functional assay

EC50, proliferation of mouse mast cell line MC/9: 5 pM
IC50, inhibition of TNFα production in LPS-stimulated C57BL/6 mouse PBMCs (PBMC + LPS): 0.45 pM
B1: Human wild-type IL-10 (wtIL-10) (ligand)
chain: SPGQGTQSENSCTHFPGNLPNMLRDLRDAFSRVKTFFQMKDQLDNLLLKESLLEDFKGYLGCQALSEMIQFYLEEVMPQAENQDPDIKAHVNSLGENLKTLRLRLRRCHRFLPCENKSKAVEQVKNAFNKLQEKGIYKAMSEFDIFINYIEAYMTMKIRN
